# Assay results taken from patent US20240400708A1.
# Positions count from the first letter of the chain named. Numbers in names are those of the source.
# B1: feline IgG1a Fc mutant Q311M, S428L (antibody, part only; not given: Variable domains, not shown: another chain or arm of the molecule; small tags and cut ends)
# constant: ASTTAPSVFPLAPSCGTTSGATVALACLVLGYFPEPVTVSWNSGALTSGVHTFPAVLQASGLYSLSSMVTVPSSRWLSDTFTCNVAHPPSNTKVDKTVRKTDHPPGPKPCDCPKCPPPEMLGGPSIFIFPPKPKDTLSISRTPEVTCLVVDLGPDDSDVQITWFVDNTQVYTAKTSPREEQFNSTYRVVSVLPILHMDWLKGKEFKCKVNSKSLPSPIERTISKAKGQPHEPQVYVLPPAQEELSRNKVSVTCLIKSFHPPDIAVEWEITGQPEPENNYRTTPPQLDSDGTYFVYSKLSVDRSHWQRGNTYTCSVLHEALHSHHTQKSLTQSPGK
# B2: feline IgG1a Fc mutant S428M, S434R (antibody, part only; not given: variable domains, not shown: another chain or arm of the molecule; small tags and cut ends)
# constant: B1 constant with M197Q, L316M, S322R
# B3: feline IgG1a Fc mutant Q311Y, S428M (antibody, part only; not given: Variable domains, not shown: another chain or arm of the molecule; small tags and cut ends)
# constant: B1 constant with M197Y, L316M
# B4: feline IgG1a Fc mutant S428L, S434R (antibody, part only; not given: variable domains and light chain, not shown: another chain or arm of the molecule; small tags and cut ends)
# constant: B1 constant with M197Q, S322R
# B5: feline IgG1a Fc mutant Q311W, S428M (antibody, part only; not given: Variable domains, not shown: another chain or arm of the molecule; small tags and cut ends)
# constant: B1 constant with M197W, L316M
# B6: feline IgG1a Fc mutant Q311Y, S428Y (antibody, part only; not given: Variable domains, not shown: another chain or arm of the molecule)
# constant: B1 constant with M197Y, L316Y
# B7: feline IgG1a Fc mutant S428M, S252F (antibody, part only; not given: Variable domains, not shown: another chain or arm of the molecule; small tags and cut ends)
# constant: B1 constant with S138F, M197Q, L316M
# B8: feline IgG1a Fc mutant Q311R, S428M (antibody, part only; not given: variable domains and light chain, not shown: another chain or arm of the molecule; small tags and cut ends)
# constant: B1 constant with M197R, L316M
# B9: feline IgG1a Fc mutant Q311W, S428Y (antibody, part only; not given: Variable domains, not shown: another chain or arm of the molecule)
# constant: B1 constant with M197W, L316Y
# B10: feline IgG1a Fc mutant Q311L, S428Y (antibody, part only; not given: Variable domains, not shown: another chain or arm of the molecule)
# constant: B1 constant with M197L, L316Y
# B11: feline IgG1a Fc mutant S428Y, S252H (antibody, part only; not given: Variable domains, not shown: another chain or arm of the molecule; small tags and cut ends)
# constant: B1 constant with S138H, M197Q, L316Y
# B12: feline IgG1a Fc mutant Q311M, S428M (antibody, part only; not given: Variable domains, not shown: another chain or arm of the molecule; small tags and cut ends)
# constant: B1 constant with L316M
# B13: feline IgG1a Fc mutant S428M, S434H (antibody, part only; not given: Variable domains, not shown: another chain or arm of the molecule; small tags and cut ends)
# constant: B1 constant with M197Q, L316M, S322H
# B14: feline IgG1a Fc mutant Q311L, S428M (antibody, part only; not given: Variable domains, not shown: another chain or arm of the molecule; small tags and cut ends)
# constant: B1 constant with M197L, L316M
# B15: feline IgG1a Fc mutant Q311H, S428M (antibody, part only; not given: Variable domains, not shown: another chain or arm of the molecule; small tags and cut ends)
# constant: B1 constant with M197H, L316M
# B16: feline IgG1a Fc mutant Q311K, S428M (antibody, part only; not given: Variable domains, not shown: another chain or arm of the molecule; small tags and cut ends)
# constant: B1 constant with M197K, L316M
# B17: feline IgG1a Fc mutant S428M, S252H (antibody, part only; not given: Variable domains, not shown: another chain or arm of the molecule; small tags and cut ends)
# constant: B1 constant with S138H, M197Q, L316M
# B18: feline IgG1a Fc mutant Q311H, S428Y (antibody, part only; not given: Variable domains, not shown: another chain or arm of the molecule)
# constant: B1 constant with M197H, L316Y
# B19: feline IgG1a Fc mutant S428M, S252W (antibody, part only; not given: variable domains and light chain, not shown: another chain or arm of the molecule; small tags and cut ends)
# constant: B1 constant with S138W, M197Q, L316M
# B20: feline IgG1a Fc mutant Q311R, S428L (antibody, part only; not given: Variable domains, not shown: another chain or arm of the molecule; small tags and cut ends)
# constant: B1 constant with M197R
# B21: feline IgG1a Fc mutant S428Y, S252Y (antibody, part only; not given: Variable domains, not shown: another chain or arm of the molecule; small tags and cut ends)
# constant: B1 constant with S138Y, M197Q, L316Y
# B22: feline IgG1a Fc mutant S428Y, S252W (antibody, part only; not given: Variable domains, not shown: another chain or arm of the molecule)
# constant: B1 constant with S138W, M197Q, L316Y
# B23: feline IgG1a Fc mutant S428Y, S252F (antibody, part only; not given: Variable domains, not shown: another chain or arm of the molecule)
# constant: B1 constant with S138F, M197Q, L316Y
# Biological target: Feline FcRn complex (FcRn-alpha subunit and beta-microglobulin) (feline)
# Assay: SPR (Biacore), feline FcRn captured on SA chip, IgG flowed over, pH 6
row,Binder,Kd
1,B1,6.44 nM
2,B2,5.46 nM
3,B3,5.73 nM
4,B4,4.66 nM
5,B5,6.51 nM
6,B6,5.57 nM
7,B7,5.9 nM
8,B8,5.28 nM
9,B9,6.35 nM
10,B10,4.74 nM
11,B11,6.41 nM
12,B12,5.66 nM
13,B13,3.09 nM
14,B14,5.7 nM
15,B15,6.58 nM
16,B16,6.16 nM
17,B17,6.83 nM
18,B18,6.92 nM
19,B19,4.65 nM
20,B20,5.47 nM
21,B21,8.58 nM
22,B22,2.95 nM
23,B23,6.62 nM
